This is an account of results in the RNAGym collection of RNA variant scans (doi:10.7554/elife.80360).

Sequences and labels used below:
B1: Twister Ribozyme (parent)
chain: AACACUGCCAAUGCCGGUCCCAAGCCCGGAUAAAAGUGGAGGGGGCGG

In the series the parent is B1. Put plainly: self-cleavage, relative activity (ratio to wild type); higher = more cleavage; co-transcriptional.
For the variant C3G G24A, the self-cleavage was found to be 0.0502.
As for A30U G36A, the self-cleavage came to 0.762.
Regarding A11G A22U, the self-cleavage was 0.66.
Next, A23U G43A: 0.118; U6G A40U: 0.181; C9U G43A: 0.137.
Take U37C A40C: the self-cleavage was 0.0942.
In the case of C8G G44A it was 0.513; in that of A10C U31C, 0.834.
Turning to U6A G45C, the self-cleavage stood at 0.254.
Next, U6A G45A: 0.911.
Next, A11U G41A: 0.747.
Consider A33G A40C, for which the self-cleavage stood at 0.17.
As for C3A C9U, the self-cleavage came out at 0.0898.
With A10C G24U, the self-cleavage was determined as 0.0955.
In the case of A11C A35U it was 0.942; in that of G24A A32G, 0.11; in that of A34G G38C, 0.632.
For the variant C25G A33G, the self-cleavage turned out to be 0.148.
Turning to C8U U18C, the self-cleavage was determined as 0.0906.
Consider C9A G38U, for which the self-cleavage was found to be 0.32.
On to G17A G24C, for which the self-cleavage stood at 0.128.
With C25G G45C, the self-cleavage was 0.143.
In the case of C3G A10G it was 0.872; in that of G28A G47C, 0.283; in that of G28A A32G, 0.835.
In the case of G28A A32U it was 0.817.
Next, G7U C46U: 0.103; A2G G41A: 0.102; U18A G39U: 0.144.
Take C14U A33G: the self-cleavage is 0.927.
In the case of C26U C27U it was 0.115; in that of A10U C21A, 0.175; in that of A4G A35U, 0.844.
On to U6G G43A, for which the self-cleavage stood at 0.144.
Regarding U6G G43C, the self-cleavage was found to be 0.13.
In the case of C9U A11G it was 0.597; in that of C5G G45U, 0.369; in that of C21A A34C, 0.0648.
As to U31A A33U, the self-cleavage amounted to 0.935.
Next, U6G A35G: 0.281; C9U G29A: 0.635; U12G A35U: 0.848.
With U6G G48U, the self-cleavage is 0.308.
In the case of A2G C26A, the self-cleavage was 0.134.
On to A1C G44U, for which the self-cleavage came out at 0.133.
Next, A35U G43U: 0.352; G7C A30G: 0.0729; C9U A22U: 0.313.
With C3A U37G, the self-cleavage turned out to be 0.17.
In the case of U12C G24A it was 0.0718.
Take C8G A35C: the self-cleavage turned out to be 0.478.
Turning to C3A G45C, the self-cleavage was 0.0823.
In the case of A4G G43C it was 0.168; in that of A4G A34G, 0.61.
As to A30G A35G, the self-cleavage was 0.869.
With C14G C20A, the self-cleavage was 0.104.
G38U G43A: the self-cleavage was 0.154.
As to C3U G38C, the self-cleavage came out at 0.288.
Consider C3U G38A, for which the self-cleavage was 0.396.
Regarding G28A G44C, the self-cleavage is 0.718.
A10U A35G: the self-cleavage was 0.808.
In the case of A22G G28C it was 0.215.
U12A A32C: the self-cleavage worked out at 1.15.
For G39A G45A, the self-cleavage came to 0.418.
Regarding U12C A40C, the self-cleavage is 0.177.
For U12C A40G, the self-cleavage is 0.107.
In the case of A4U C5A, the self-cleavage was 0.0794.
For the variant C3A G28A, the self-cleavage was found to be 0.183.
With A11U C27A, the self-cleavage stood at 0.66.
On to G13U G47C, for which the self-cleavage is 0.179.
In the case of U12C G38U it was 0.781; in that of G28U C46A, 0.778; in that of C5U C9U, 0.337.
Consider C9A G43C, for which the self-cleavage turned out to be 0.0978.
Next, A11C C27A: 0.176; A30U G39C: 0.185.
In the case of C15U C26G it was 0.0693; in that of U6C C14A, 0.504; in that of C27A G43A, 0.148.
On to G13A G38A, for which the self-cleavage was 0.581.
Next, A23G U31C: 0.544; U37G G47C: 0.306; C9U C19A: 0.0695.
Consider U6G A10C, for which the self-cleavage came to 0.136.
With A1C U6G, the self-cleavage was 0.0831.
C8U A34U: the self-cleavage was 0.308.
For A4U A35C, the self-cleavage was found to be 0.129.
Turning to G16U C19A, the self-cleavage worked out at 0.284.
Turning to A10G G42A, the self-cleavage turned out to be 0.509.
For U6C C19A, the self-cleavage came to 0.104.
On to G41C G43U, for which the self-cleavage came out at 0.153.
For C20A A33C, the self-cleavage worked out at 0.0903.
In the case of C20A A33G, the self-cleavage was found to be 0.116.
In the case of G16A C26A, the self-cleavage came out at 0.437.
Consider A10U U37C, for which the self-cleavage is 0.667.
Turning to G7U A10U, the self-cleavage came out at 0.0807.
As to C15A G17A, the self-cleavage was determined as 0.061.
Take C20U G28A: the self-cleavage is 0.809.
For the variant G7C G13U, the self-cleavage was found to be 0.0637.
For the variant A22U A23U, the self-cleavage was determined as 0.102.
As for U31C G44A, the self-cleavage was found to be 1.1.
In the case of C25G A40C it was 0.0986.
Take U12A A34C: the self-cleavage was 0.36.
In the case of U18C G42C, the self-cleavage worked out at 0.114.
Next, C8A A33C: 0.279; C14G C19A: 0.0588; C3G G13A: 0.138.
Next, C19G G39C: 0.162.
On to G28U A32C, for which the self-cleavage turned out to be 0.716.
Take C14G G38A: the self-cleavage worked out at 0.127.
C27U G41A: the self-cleavage is 0.347.
For the variant C21G G44C, the self-cleavage came out at 0.0843.
For the variant A10G G41C, the self-cleavage stood at 0.384.
Regarding A2U G29U, the self-cleavage is 0.484.
As to A33G U37A, the self-cleavage stood at 0.814.
As for G13A, the self-cleavage worked out at 1.05.
Consider A11U G28A, for which the self-cleavage was 1.02.
Next, A1G G48U: 0.409; G43A G47A: 0.237; U6G C46G: 0.406.
For U18A G48C, the self-cleavage worked out at 0.395.
Next, A23G C25A: 0.0465.
Consider C9U A34C, for which the self-cleavage was 0.131.
As to C21U C27A, the self-cleavage came to 0.0634.
C21A C46A: the self-cleavage came out at 0.0995.
G28U A30G: the self-cleavage was 0.999.
For A11C G47C, the self-cleavage is 0.648.
Regarding G24U G28U, the self-cleavage was found to be 0.0893.
In the case of C21G G28C, the self-cleavage came out at 0.0382.
With C25U G38C, the self-cleavage is 0.847.
Take C9U G16U: the self-cleavage is 0.373.
In the case of A33C G41C, the self-cleavage came to 0.151.
On to C3A C25G, for which the self-cleavage was determined as 0.12.
In the case of C27G A40G, the self-cleavage was 0.062.
As to G16C G41A, the self-cleavage came to 0.143.
In the case of G17U U37C, the self-cleavage amounted to 0.085.
Take C3U U6C: the self-cleavage is 0.0788.
On to G17U G42C, for which the self-cleavage was 0.126.
Consider G16A G17A, for which the self-cleavage worked out at 0.281.
On to U6A G28U, for which the self-cleavage worked out at 0.604.
Consider C19U G24A, for which the self-cleavage worked out at 0.0904.
Regarding C21U G48A, the self-cleavage was determined as 0.131.
For C21U G48U, the self-cleavage came out at 0.125.
Regarding A10G G28A, the self-cleavage amounted to 1.08.
Next, G17U G41C: 0.0885; C3U G29A: 0.32; A10U C19G: 0.367.
As to A10C U12C, the self-cleavage came out at 0.929.
Take U6C G17U: the self-cleavage came out at 0.072.
For the variant A2C C3G, the self-cleavage turned out to be 0.127.
Regarding C21A G48A, the self-cleavage is 0.107.
As for C3U G24C, the self-cleavage came to 0.0842.
In the case of A2U A34G it was 0.292.
In the case of G16U A40U it was 0.137; in that of G13C G42U, 0.112.
As for U18A A32G, the self-cleavage amounted to 0.407.
For C15U G43A, the self-cleavage was found to be 0.225.
In the case of A4U G7U it was 0.0685.
In the case of G43A G45C, the self-cleavage worked out at 0.434.
For A4C G24A, the self-cleavage was found to be 0.0887.
Take C14U C27A: the self-cleavage was 0.586.
For G24A C46U, the self-cleavage came to 0.107.
In the case of A4U A30U it was 0.11.
As for A11U C25A, the self-cleavage amounted to 0.139.
Next, C19G G36C: 0.118; G29A G36C: 0.246.
